Target: Human FcRn (hFcRn), soluble α-chain/β2m heterodimer, P55899;P61769
Experiment: BLI (in vitro BLI-based FcRn platform)
Settings: chain shown with the change;, read off a plot

Binder	other: Predicted Human t1/2, β (parent: est. 270) [days]	other: Predicted Human t1/2, β (parent: est. 690) [days]
HCV1, fully human IgG1 mAb HCV (with CDB Vk CDRs): Vk CDR1-3 of HCV1 replaced by Vk CDRs of CDB1; residues not printed (protein) chain 1: EVQLLESGGGVVQPGRSLRLSCTASGFTFNNYGMHWVRQTPGKGLEWLAVIWFDENNKYYADSVRGRFTISRDNSKNTLFLQMNSLKTEDTAMYYCARDISLVRDAFIYFDFWGLGTLVTVSS chain 2: ELTLTQSPATLSLSPGERATLSCRASQSVSSSYLAWYQQKPGQAPRLLIYGASNRATGIPARFSGSGSGTDFTLTISSLEPEDFAVYYCQQYGSSTWTFGQGTRLEIK	13.3	–
HCV1, fully human IgG1 mAb HCV (with CDA VH CDRs): VH CDR1-3 of HCV1 replaced by VH CDRs of CDA1; residues not printed (protein) chain 1: EVQLLESGGGVVQPGRSLRLSCTASGFSFSNYGMHWVRQTPGKGLEWLAVIWYDGSNEYYADSVRGRFTISRDNSKNTLFLQMNSLKTEDTAMYYCARWGMVRGVIDVFDIWGLGTLVTVSS chain 2: ELTLTQSPATLSLSPGERATLSCRASQSVSSYLAWYQQKPGQAPRLLIYDASNRATGIPARFSGSGSGTDFTLTISSLEPEDFAVYYCQQRSNWITFGQGTRLEIK	22.9	–
CDA1 (actoxumab), fully human IgG1 mAb CDA (with HCV VH CDRs): VH CDR1-3 of CDA1 replaced by VH CDRs of HCV1; residues not printed (protein) chain 1: QVQLVESGGGVVQPGRSLRLSCAASGFTFNNYGMHWVRQAPGKGLEWVALIWFDENNKDYTDSVKGRFTISRDNSKNTLYLQMNSLRAEDTAVYYCARDISLVRDAFIYFDFWGQGTVVTVSS chain 2: DIQMTQSPSSVSASVGDRVTITCRASQGISSWLAWYQHKPGKAPKLLIYAASSLQSGVPSRFSGSGSGTDFTLTISSLQPEDFATYYCQQANSFPWTFGQGTKVEIK	–	15
